Experimental findings from US20100086958A1, “NOVEL ENZYME” (priority 2008, published 2010) are described below.

Bounds are passed on as bounds.

A short description of the data set: Cytochrome P450 BM3/BspFDH2 coupled oxidation of 1-propylbenzene with NADPH regeneration. The format is biochemical. The protocol: (Li, Q.-S. et al., FEBS Letters 508, 249-252 (2001)) In this oxygen C—H reaction (FIG. 4a), one oxygen atom from an atmospheric O2 molecule is reduced to water by NADPH leaving the other ready for delivery to substrate. All P450's are NADPH-dependent. NADP^+ thus formed is then regenerated to NADPH by the action of BspFDH2 using formate. The overall atomic transformation is therefore the splitting of O2- with a hydride ion from formate using NADP^+ as a hydride shuttle.
200 μL of 1-propylbenzene (1a above, 1M in DMSO), sodium formate (3 M, 2 mL) and bovine serum albumin (100 mg/mL, 1 mL) were added in potassium phosphate buffer (100 mM, pH 7.6, 2 mL) and the reaction mixture was shaken for 3 min. NADP^+ (10 mM, 1 mL) and BspFDH2 (17 mg/mL, 500 μL) were added and the reaction shaken for 30 minutes at room temperature. After 30 minutes, wild type cytochrome P450-BM3 (WT P450 BM3, 2.4 mg/mL, 300 μL) was added and the reaction shaken at room temperature. The reaction was monitored by GC-MS (Rt˜3.2 minutes). After 15 hr, the reaction mixture was extracted by DCM (3×1 mL) and the combined organic phase was dried and the solvent removed to afford 1-phenylpropan-1-ol (2a above, >99% conversion based on GC chromatogram). […]

B1: Bsp383FDH: wild type FDH from Burkholderia sp 383, Seq ID No: 1, C-terminal His-tagged (protein, listed as Burkholderia sp.)
chain: MATVLCVLYPDPVDGYPPRYVRDAIPVITHYADGQTAPTPAGPPGFQPGELVGCVSGALGLRGYMEAHGHTLIVTSDKDSPDSEFERRLPEADVVISQPFWPAYLTAERIARAPKLKLALTAGIGSDHVDLDAAARARITVAEVTGSNSISVAEHVVMTTLALVRNYLPSHAIAQQGGWNIADCVSRSYDVEGMHFGTVGAGRIGLAVLRRLKPFGLQLHYTQRHRLDASIEQELGLTYHADAASLASAVDIVNLQIPLYPSTEHLFDAAMIARMKRGAYLINTARAKLVDRDAVVNALTSGHLAGYGGDVWFPQPAPADHPWRTMPFNGMTPHISGTSLSAQARYAAGTLEILQCWFDGKPIRNEYLIVDGGTLAGTGAQSYRLT
modifications: C-terminal His tag
With B1, the reaction complete within (coupled with cytochrome P450 BM-3) was not above 2 h. The “conversion of propylbenzene to 1-phenyl-1-propanol” value (coupled with cytochrome P450 BM-3, NADPH regeneration from formate, GC) is recorded as more than 99%.
